Laboratory results from patent publication US20150344570A1 (published 2015).

How the values were obtained:
[1] = target: T1, FcγRIa extracellular domain with C-terminal His tag (human, UniProt P12314 16-292); experiment: SPR (Biacore), relative binding, HeCon Ab = 100
T1 construct: extracellular domain; Expressed in FreeStyle293 cells; analyte in the SPR assay; also called FcgRI; 1a

[2] = target: T2, FcγRIIb extracellular domain with C-terminal His tag (human, UniProt P31994 43-217); experiment: SPR (Biacore), relative binding, HeCon Ab = 100
T2 construct: extracellular domain; Expressed in FreeStyle293 cells; analyte in the SPR assay; also called FcgRIIb; 2b
T2 sequence (looked up): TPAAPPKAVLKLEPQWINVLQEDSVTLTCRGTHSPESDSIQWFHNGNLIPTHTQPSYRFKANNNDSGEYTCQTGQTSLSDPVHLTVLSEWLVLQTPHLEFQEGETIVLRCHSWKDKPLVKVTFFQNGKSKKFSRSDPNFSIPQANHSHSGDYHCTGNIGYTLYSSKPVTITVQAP

[3] = target: T3, FcγRIa (human, UniProt P12314 16-292); experiment: SPR (Biacore); He Ab vs HeCon Ab GpH7-A5/GpH7-B3/GpL16-k0
T3 construct: extracellular domain; Soluble extracellular domain expressed in FreeStyle293 cells, used as analyte in Biacore; also called FcgRI; 1a; not shown: His tag attached to the C terminus
T3 sequence (P12314 16-292): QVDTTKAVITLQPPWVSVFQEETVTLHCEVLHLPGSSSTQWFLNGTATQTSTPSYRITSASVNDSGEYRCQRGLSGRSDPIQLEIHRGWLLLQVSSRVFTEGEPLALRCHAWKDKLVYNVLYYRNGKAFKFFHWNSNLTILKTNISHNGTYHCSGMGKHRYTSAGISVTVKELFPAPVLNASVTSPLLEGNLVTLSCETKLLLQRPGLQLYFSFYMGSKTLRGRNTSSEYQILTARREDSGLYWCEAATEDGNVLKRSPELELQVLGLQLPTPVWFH
How it was run: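 On Biacore T100 at 25° C in HBS-EP+, FcγR extracellular domains flowed over test antibodies held by immobilized antigen peptide. Glycine-HCl 10 mM, pH 1.5 stripped captured antibody between cycles; values reported as binding relative to the control antibody.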

[4] = target: T4, FcγRIIb (human, UniProt P31994 43-217); experiment: SPR (Biacore), relative binding
T4 construct: extracellular domain; also called FcgRIIb; 2b
T4 sequence (looked up): T2 sequence (looked up)

T1 sequence (P12314 16-292): as above

B1: GpH7-A5/GpH7-B3 variant E269_04F/GpL16-k0 (He Ab) (antibody, human IgG1, kappa)
heavy 1: not shown
heavy 2: not shown
light: DIVMTQSPLSLPVTPGEPASISCQASESLVHSNRNTYLHWYLQKPGQSPQLLIYKVSNRFSGVPDRFSGSGSGTDFTLKISRVEAEDVGVYYCSQNTHVPPTFGQGTKVEIERTVAAPSVFIFPPSDEQLKSGTASVVCLLNNFYPREAKVQWKVDNALQSGNSQESVTEQDSKDSTYSLSSTLTLSKADYEKHKVYACEVTHQGLSSPVTKSFNRGEC
notes: He Ab: mutation in one H chain only
- He/Con_1a [1]: 103 % of HeCon Ab (=100)
- He/Con_2b [2]: 45 % of HeCon Ab (=100)

B2: GpH7-A5/GpH7-B3 variant E269_03V/GpL16-k0 (He Ab) (antibody, human IgG1, kappa)
heavy 1: not shown
heavy 2: not shown
light: B1 light
notes: as for B1
- He/Con_1a [1]: 103 % of HeCon Ab (=100)
- He/Con_2b [2]: 45.1 % of HeCon Ab (=100)

B3: GpH7-A5/GpH7-B3 variant E269_06M/GpL16-k0 (He Ab) (antibody, human IgG1, kappa)
heavy 1: not shown
heavy 2: not shown
light: B1 light
notes: as for B1
- He/Con_1a [1]: 104 % of HeCon Ab (=100)
- He/Con_2b [2]: 46.7 % of HeCon Ab (=100)

B4: GpH7-A5/GpH7-B3 variant T335_05P/GpL16-k0 (antibody, human IgG1, kappa)
heavy 1: not shown
heavy 2: not shown
light: B1 light
notes: also called He Ab T335_05P
- He/Con_1a [3]: 106 relative binding, control = 100

B5: GpH7-A5/GpH7-B3 variant H268_06M/GpL16-k0 (He Ab) (antibody, human IgG1, kappa)
heavy 1: not shown
heavy 2: not shown
light: B1 light
notes: as for B1
- He/Con_1a [1]: 105 % of HeCon Ab (=100)
- He/Con_2b [2]: 65.7 % of HeCon Ab (=100)

B6: GpH7-A5/GpH7-B3 variant T335_04F/GpL16-k0 (antibody, human IgG1, kappa)
heavy 1: not shown
heavy 2: not shown
light: B1 light
notes: also called He Ab T335_04F
- He/Con_1a [3]: 105 relative binding, control = 100

B7: GpH7-A5/GpH7-B3 variant H268_11K/GpL16-k0 (He Ab) (antibody, human IgG1, kappa)
heavy 1: not shown
heavy 2: not shown
light: B1 light
notes: as for B1
- He/Con_1a [1]: 106 % of HeCon Ab (=100)
- He/Con_2b [2]: 83 % of HeCon Ab (=100)

B8: GpH7-A5/GpH7-B3 variant D265_02A/GpL16-k0 (antibody, human IgG1, kappa)
heavy 1: not shown
heavy 2: not shown
light: B1 light
notes: mutation in the GpH7-B3 chain only; also called He Ab
- He/Con_2b [4]: 19.9 % of GpH7-A5/GpH7-B3/GpL16-k0

B9: GpH7-A5/GpH7-B3 variant V266_20W/GpL16-k0 (antibody, human IgG1, kappa)
heavy 1: not shown
heavy 2: not shown
light: B1 light
notes: as for B8
- He/Con_2b [4]: 71.9 % of GpH7-A5/GpH7-B3/GpL16-k0

B10: GpH7-A5/GpH7-B3 variant P271_06M/GpL16-k0 (He Ab) (antibody, human IgG1, kappa)
heavy 1: not shown
heavy 2: not shown
light: B1 light
notes: as for B1
- He/Con_1a [1]: 102 % of HeCon Ab (=100)
- He/Con_2b [2]: 77.5 % of HeCon Ab (=100)

B11: GpH7-A5/GpH7-B3 variant E269_13S/GpL16-k0 (He Ab) (antibody, human IgG1, kappa)
heavy 1: not shown
heavy 2: not shown
light: B1 light
notes: as for B1
- He/Con_1a [1]: 103 % of HeCon Ab (=100)
- He/Con_2b [2]: 47.8 % of HeCon Ab (=100)

B12: GpH7-A5/GpH7-B3 variant H268_07I/GpL16-k0 (He Ab) (antibody, human IgG1, kappa)
heavy 1: not shown
heavy 2: not shown
light: B1 light
notes: as for B1
- He/Con_1a [1]: 108 % of HeCon Ab (=100)
- He/Con_2b [2]: 88.9 % of HeCon Ab (=100)

B13: GpH7-A5/GpH7-B3 variant H268_12R/GpL16-k0 (He Ab) (antibody, human IgG1, kappa)
heavy 1: not shown
heavy 2: not shown
light: B1 light
notes: as for B1
- He/Con_1a [1]: 106 % of HeCon Ab (=100)
- He/Con_2b [2]: 89.8 % of HeCon Ab (=100)

B14: GpH7-A5/GpH7-B3 variant G236_02A/GpL16-k0 (He Ab) (antibody, human IgG1, kappa)
heavy 1: not shown
heavy 2: not shown
light: B1 light
notes: as for B1
- He/Con_1a [1]: 100 % of HeCon Ab (=100)
- He/Con_2b [2]: 96.5 % of HeCon Ab (=100)

B15: GpH7-A5/GpH7-B3 variant E269_02A/GpL16-k0 (He Ab) (antibody, human IgG1, kappa)
heavy 1: not shown
heavy 2: not shown
light: B1 light
notes: as for B1
- He/Con_1a [1]: 104 % of HeCon Ab (=100)
- He/Con_2b [2]: 49.9 % of HeCon Ab (=100)

B16: GpH7-A5/GpH7-B3 variant T335_11K/GpL16-k0 (antibody, human IgG1, kappa)
heavy 1: not shown
heavy 2: not shown
light: B1 light
notes: also called He Ab T335_11K
- He/Con_1a [3]: 111 relative binding, control = 100

B17: GpH7-A5/GpH7-B3 variant P271_03V/GpL16-k0 (He Ab) (antibody, human IgG1, kappa)
heavy 1: not shown
heavy 2: not shown
light: B1 light
notes: as for B1
- He/Con_1a [1]: 102 % of HeCon Ab (=100)
- He/Con_2b [2]: 74.8 % of HeCon Ab (=100)

B18: GpH7-A5/GpH7-B3 variant P271_07I/GpL16-k0 (He Ab) (antibody, human IgG1, kappa)
heavy 1: not shown
heavy 2: not shown
light: B1 light
notes: as for B1
- He/Con_1a [1]: 102 % of HeCon Ab (=100)
- He/Con_2b [2]: 76.8 % of HeCon Ab (=100)

B19: GpH7-A5/GpH7-B3 variant H268_14T/GpL16-k0 (He Ab) (antibody, human IgG1, kappa)
heavy 1: not shown
heavy 2: not shown
light: B1 light
notes: as for B1
- He/Con_1a [1]: 112 % of HeCon Ab (=100)
- He/Con_2b [2]: 86 % of HeCon Ab (=100)

B20: GpH7-A5/GpH7-B3 variant G236_20W/GpL16-k0 (He Ab) (antibody, human IgG1, kappa)
heavy 1: not shown
heavy 2: not shown
light: B1 light
notes: as for B1
- He/Con_1a [1]: 105 % of HeCon Ab (=100)
- He/Con_2b [2]: 58.2 % of HeCon Ab (=100)

B21: GpH7-A5/GpH7-B3 variant H268_04F/GpL16-k0 (He Ab) (antibody, human IgG1, kappa)
heavy 1: not shown
heavy 2: not shown
light: B1 light
notes: as for B1
- He/Con_1a [1]: 106 % of HeCon Ab (=100)
- He/Con_2b [2]: 89.6 % of HeCon Ab (=100)

B22: GpH7-A5/GpH7-B3 variant T335_06M/GpL16-k0 (antibody, human IgG1, kappa)
heavy 1: not shown
heavy 2: not shown
light: B1 light
notes: also called He Ab T335_06M
- He/Con_1a [3]: 107 relative binding, control = 100

B23: GpH7-A5/GpH7-B3 variant Y300_12R/GpL16-k0 (antibody, human IgG1, kappa)
heavy 1: not shown
heavy 2: not shown
light: B1 light
notes: also called He Ab Y300_12R
- He/Con_1a [3]: 105 relative binding, control = 100

B24: GpH7-A5/GpH7-B3 variant D265_10E/GpL16-k0 (He Ab) (antibody, human IgG1, kappa)
heavy 1: not shown
heavy 2: not shown
light: B1 light
notes: as for B1
- He/Con_1a [1]: 101 % of HeCon Ab (=100)
- He/Con_2b [2]: 38.2 % of HeCon Ab (=100)
